How the values were obtained:
G. max ALS1 protein [1] = experiment: Colorimetric ALS kinetic assay (Km, kcat) with pyruvate as substrate; format: biochemical, Glycine max
Description: A survey of known ALS (AcetoLactate Synthase) gene variants (Table 2) was performed, and a number of ALS variants were selected for kinetic evaluation based on breadth and strength of insensitivity to ALS-inhibitor herbicides as well as kinetic activity parameters including the ratio of substrate preferences. The selected ALS gene variants (Table 3) were generated by PCR mediated site-directed mutagenesis. Finnzymes PHUSION® DNA polymerase (Cat. No. F-530S) was used for the PCR reactions, following the instructions for recommended temperatures and cycles in the PHUSION® protocol. Some mutagenesis reactions were assisted by the use of IN-FUSION® enzyme (Clontech Cat. No. 639620) to circularize a linear plasmid with the mutation located within the 15 nucleotide overlapping ends, via recombination following the manufacturer's protocol for primer design and reaction conditions. The ALS genes, beginning with encoded amino acids SISK, (S48 to K51 in the G. max ALS1 protein (SEQ ID NO:1) corresponding to the mature protein N-terminus of the chloroplast localized enzyme), were cloned into the PMAL® E. coli expression vector (New England Biolabs) to express ALS as a fusion protein with a Maltose-Binding Protein (MBP) at the N-terminus with a thrombin site for cleavage and a His-6 tag for affinity purification. All in vitro protein characterization described in the examples was carried out with the isolated proteins after cleavage from the His-MBP fusion partner.
Km and Kcat determinations for recombinant ALS variants (with respect to pyruvate as the substrate) were performed using a colorimetric assay. ALS assays were carried out in 96-well microplates with 150 ul reaction containing 25 mM potassium phosphate, 0.2 mg/ml BSA, 15 mM MgCl2, 0.7 mM TPP, 28 uM FAD and 0-100 mM sodium pyruvate. Reactions were initiated by the addition of ALS enzyme to a final amount of 0.8 ug/well. Parameters for Km and Vmax were determined by fitting the velocity versus substrate concentration data to a rectangular hyperbola using GraphPad Prism software. Kcat values were determined from Vmax based on protein concentration in the reactions.

G. max ALS1 protein [2] = experiment: Substrate specificity ratio (Rf), pyruvate versus 2-ketobutyrate, LC-MS of reduced products; format: biochemical, Glycine max; details: ratio of [pyruvate] to [2-ketobutyrate] giving equal rates of acetolactate and acetohydroxybutyrate formation; 25 mM pyruvate
Description: The “substrate specificity ratio”, or “Rf”, characterizes the specificity of the ALS enzyme for AHB formation relative to AL formation (Gollop et al. (1989) Biochemistry 28:6310-6317). Rf is the ratio of [pyruvate] to [2-ketobutyrate] that results in equal rates of formation of acetolactate and acetohydroxybutyrate. Rf is a constant at all substrate concentrations. The substrate specificity ratio is ˜114 for the wild type Glycine max ALS1 enzyme (SEQ ID NO:1) compared to ˜3 for the highly resistant allele (HRA) double mutant variant (SEQ ID NO: 10) of the Glycine max ALS1. The soybean HRA sequence is disclosed, for example, in WO2007/024782, herein incorporated by reference.
Substrate preference was determined using the assay described in Example 3; however, the assay was conducted using a constant concentration of pyruvate (25 mM) and varying concentrations of the second substrate, 2-ketobutyrate. Each reaction involving a specific ratio of pyruvate to 2-ketobutyrate, after a set period of time, was quenched by addition of sodium borohydride (7-fold excess) to form the reduced adducts of the products of the two substrates namely; reduced acetolactate for the reaction with pyruvate and reduced aceto hydroxybutyrate for the 2-ketobutyrate reaction. The relative amounts of the two reduced products was determined by first, chromatographic separation using a 4.6×250 mm dC18 column (Atlantis) equilibrated with a 0.1% formic acid solution and subsequent elution using a methanol gradient at 0.7 ml/min, followed by detection using a Thermo FINNIGAN® LTQ® Mass Spectrometer (MS). The products of the two reactions were quantified by integration of the MS signals. The % of the amount of each of the reduced products was then plotted versus the concentration of 2-ketobutyrate. As the 2-ketobutyrate amount increased there was a consequent increase in reduced acetohydroxybutyrate (AHB) and decrease in reduced acetolactate (AL). […] The substrate specificity ratio was ˜114 for the wild type enzyme compared to 3 for the highly resistant allele (HRA) double mutant ALS variant (SEQ ID NO: 10).

Row | Molecule | Km (G. max ALS1 protein [1]) | kcat (G. max ALS1 protein [1]) | Substrate specificity ratio (Rf) (G. max ALS1 protein [2])
1 | GM-ALS_P178S_D357N: Glycine Max ALS1 with P→S at position 178 and D→N at position 357 (protein, ALS1 variant P178S D357N) MAATASRTTRFSSSSSHPTFPKRITRSTLPLSHQTLTKPNHALKIKCSISKPPTAAPFTKEAPTTEPFVSRFASGEPRKGADILVEALERQGVTTVFAYPGGASMEIHQALTRSAAIRNVLPRHEQGGVFAAEGYARSSGLPGVCIATSGPGATNLVSGLADALMDSVPVVAITGQVSRRMIGTDAFQETPIVEVSRSITKHNYLILDVDDIPRVVAEAFFVATSGRPGPVLIDIPKDVQQQLAVPNWDEPVNLPGYLARLPRPPAEAQLEHIVRLIMEAQKPVLYVGGGSLNSSAELRRFVELTGIPVASTLMGLGTFPIGDEYSLQMLGMHGTVYANYAVDNSDLLLAFGVRFDNRVTGKLEAFASRAKIVHIDIDSAEIGKNKQAHVSVCADLKLALKGINMILEEKGVEGKFDLGGWREEINVQKHKFPLGYKTFQDAISPQHAIEVLDELTNGDAIVSTGVGQHQMWAAQFYKYKRPRQWLTSGGLGAMGFGLPAAIGAAVANPGAVVVDIDGDGSFIMNVQELATIRVENLPVKILLLNNQHLGMVVQWEDRFYKSNRAHTYLGDPSSESEIFPNMLKFADACGIPAARVTKKEELRAAIQRMLDTPGPYLLDVIVPHQEHVLPMIPSNGSFKDVITEGDGRTRY | 4 mM | 1.82 s⁻¹ | 49.0
2 | GM-ALS_P178S_F559D: Glycine Max ALS1 with P→S at position 178 and F→D at position 559 (protein, ALS1 variant P178S F559D) MAATASRTTRFSSSSSHPTFPKRITRSTLPLSHQTLTKPNHALKIKCSISKPPTAAPFTKEAPTTEPFVSRFASGEPRKGADILVEALERQGVTTVFAYPGGASMEIHQALTRSAAIRNVLPRHEQGGVFAAEGYARSSGLPGVCIATSGPGATNLVSGLADALMDSVPVVAITGQVSRRMIGTDAFQETPIVEVSRSITKHNYLILDVDDIPRVVAEAFFVATSGRPGPVLIDIPKDVQQQLAVPNWDEPVNLPGYLARLPRPPAEAQLEHIVRLIMEAQKPVLYVGGGSLNSSAELRRFVELTGIPVASTLMGLGTFPIGDEYSLQMLGMHGTVYANYAVDNSDLLLAFGVRFDDRVTGKLEAFASRAKIVHIDIDSAEIGKNKQAHVSVCADLKLALKGINMILEEKGVEGKFDLGGWREEINVQKHKFPLGYKTFQDAISPQHAIEVLDELTNGDAIVSTGVGQHQMWAAQFYKYKRPRQWLTSGGLGAMGFGLPAAIGAAVANPGAVVVDIDGDGSFIMNVQELATIRVENLPVKILLLNNQHLGMVVQWEDRDYKSNRAHTYLGDPSSESEIFPNMLKFADACGIPAARVTKKEELRAAIQRMLDTPGPYLLDVIVPHQEHVLPMIPSNGSFKDVITEGDGRTRY | 40 mM | 0.833 s⁻¹ | 89.0
3 | GM-ALS_A186D: Glycine Max ALS1 variant with a A→D mutation at position 186 (protein, ALS1 variant A186D) MAATASRTTRFSSSSSHPTFPKRITRSTLPLSHQTLTKPNHALKIKCSISKPPTAAPFTKEAPTTEPFVSRFASGEPRKGADILVEALERQGVTTVFAYPGGASMEIHQALTRSAAIRNVLPRHEQGGVFAAEGYARSSGLPGVCIATSGPGATNLVSGLADALMDSVPVVAITGQVPRRMIGTDDFQETPIVEVSRSITKHNYLILDVDDIPRVVAEAFFVATSGRPGPVLIDIPKDVQQQLAVPNWDEPVNLPGYLARLPRPPAEAQLEHIVRLIMEAQKPVLYVGGGSLNSSAELRRFVELTGIPVASTLMGLGTFPIGDEYSLQMLGMHGTVYANYAVDNSDLLLAFGVRFDDRVTGKLEAFASRAKIVHIDIDSAEIGKNKQAHVSVCADLKLALKGINMILEEKGVEGKFDLGGWREEINVQKHKFPLGYKTFQDAISPQHAIEVLDELTNGDAIVSTGVGQHQMWAAQFYKYKRPRQWLTSGGLGAMGFGLPAAIGAAVANPGAVVVDIDGDGSFIMNVQELATIRVENLPVKILLLNNQHLGMVVQWEDRFYKSNRAHTYLGDPSSESEIFPNMLKFADACGIPAARVTKKEELRAAIQRMLDTPGPYLLDVIVPHQEHVLPMIPSNGSFKDVITEGDGRTRY | 35 mM | 0.15 s⁻¹ | 21.7
4 | GM-ALS_A186V: Glycine Max ALS1 variant with a A→V mutation at position 186 (protein, ALS1 variant A186V) MAATASRTTRFSSSSSHPTFPKRITRSTLPLSHQTLTKPNHALKIKCSISKPPTAAPFTKEAPTTEPFVSRFASGEPRKGADILVEALERQGVTTVFAYPGGASMEIHQALTRSAAIRNVLPRHEQGGVFAAEGYARSSGLPGVCIATSGPGATNLVSGLADALMDSVPVVAITGQVPRRMIGTDVFQETPIVEVSRSITKHNYLILDVDDIPRVVAEAFFVATSGRPGPVLIDIPKDVQQQLAVPNWDEPVNLPGYLARLPRPPAEAQLEHIVRLIMEAQKPVLYVGGGSLNSSAELRRFVELTGIPVASTLMGLGTFPIGDEYSLQMLGMHGTVYANYAVDNSDLLLAFGVRFDDRVTGKLEAFASRAKIVHIDIDSAEIGKNKQAHVSVCADLKLALKGINMILEEKGVEGKFDLGGWREEINVQKHKFPLGYKTFQDAISPQHAIEVLDELTNGDAIVSTGVGQHQMWAAQFYKYKRPRQWLTSGGLGAMGFGLPAAIGAAVANPGAVVVDIDGDGSFIMNVQELATIRVENLPVKILLLNNQHLGMVVQWEDRFYKSNRAHTYLGDPSSESEIFPNMLKFADACGIPAARVTKKEELRAAIQRMLDTPGPYLLDVIVPHQEHVLPMIPSNGSFKDVITEGDGRTRY | 14 mM | 0.467 s⁻¹ | 40.3
5 | GM-ALS_K237F: Glycine Max ALS1 variant with a K→F mutation at position 237 (protein, ALS1 variant K237F) MAATASRTTRFSSSSSHPTFPKRITRSTLPLSHQTLTKPNHALKIKCSISKPPTAAPFTKEAPTTEPFVSRFASGEPRKGADILVEALERQGVTTVFAYPGGASMEIHQALTRSAAIRNVLPRHEQGGVFAAEGYARSSGLPGVCIATSGPGATNLVSGLADALMDSVPVVAITGQVPRRMIGTDAFQETPIVEVSRSITKHNYLILDVDDIPRVVAEAFFVATSGRPGPVLIDIPFDVQQQLAVPNWDEPVNLPGYLARLPRPPAEAQLEHIVRLIMEAQKPVLYVGGGSLNSSAELRRFVELTGIPVASTLMGLGTFPIGDEYSLQMLGMHGTVYANYAVDNSDLLLAFGVRFDDRVTGKLEAFASRAKIVHIDIDSAEIGKNKQAHVSVCADLKLALKGINMILEEKGVEGKFDLGGWREEINVQKHKFPLGYKTFQDAISPQHAIEVLDELTNGDAIVSTGVGQHQMWAAQFYKYKRPRQWLTSGGLGAMGFGLPAAIGAAVANPGAVVVDIDGDGSFIMNVQELATIRVENLPVKILLLNNQHLGMVVQWEDRFYKSNRAHTYLGDPSSESEIFPNMLKFADACGIPAARVTKKEELRAAIQRMLDTPGPYLLDVIVPHQEHVLPMIPSNGSFKDVITEGDGRTRY | 27 mM | 2.17 s⁻¹ | 100.0

Reference: patent US10294487B2, “Methods and compositions involving ALS variants with native substrate preference” (E I DU PONT DE NEMOURS AND COMPANY, priority 2012, dated 2019)
